Results taken from US20050244864A1, “Development and use of fluorescent probes of unbound analytes” (priority 2004, published 2005).

What was measured:
Format in all cases: binding
[1] = Probe fluorescence ratio response to arachidonate:BSA complex, relative to ADIFAB2 (ΔR/ΔRAD2); conditions: fluorescence response (R-Ro) relative to ADIFAB2; arachidonate
Method in brief: (§1)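 Fatty acids presented as BSA complexes (6 μM BSA in HEPES) set to ΔR ≈0.4 with ADIFAB2, i.e. unbound FFA 100-1000 nM. Background-subtracted ratio from excitation 375 nm, emission 550/457 nm; ΔR versus fatty-acid-free BSA, divided by the ADIFAB2 ΔR.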

[2] = Probe fluorescence ratio response to linolenate:BSA complex, relative to ADIFAB2 (ΔR/ΔRAD2); conditions: fluorescence response (R-Ro) relative to ADIFAB2; linolenate
Method in brief: as §1

[3] = Probe fluorescence ratio response to linoleate:BSA complex, relative to ADIFAB2 (ΔR/ΔRAD2); conditions: fluorescence response (R-Ro) relative to ADIFAB2; linoleate
Method in brief: as §1

[4] = Probe fluorescence ratio response to oleate:BSA complex, relative to ADIFAB2 (ΔR/ΔRAD2); conditions: fluorescence response (R-Ro) relative to ADIFAB2; oleate
Method in brief: as §1

[5] = Probe fluorescence ratio response to palmitate:BSA complex, relative to ADIFAB2 (ΔR/ΔRAD2); conditions: fluorescence response (R-Ro) relative to ADIFAB2; palmitate
Method in brief: as §1

[6] = Probe fluorescence ratio response to palmitoleate:BSA complex, relative to ADIFAB2 (ΔR/ΔRAD2); conditions: fluorescence response (R-Ro) relative to ADIFAB2
[7] = Probe fluorescence ratio response to stearate:BSA complex, relative to ADIFAB2 (ΔR/ΔRAD2); conditions: fluorescence response (R-Ro) relative to ADIFAB2

Row | Molecule | ΔR/ΔRAD2 AA [1] | ΔR/ΔRAD2 LNA [2] | ΔR/ΔRAD2 LA [3] | ΔR/ΔRAD2 OA [4] | ΔR/ΔRAD2 PA [5] | ΔR/ΔRAD2 POA [6] | ΔR/ΔRAD2 SA [7]
1 | L2P22G6: acrylodan-labeled rI-FABP-L72A mutein: M18 I, G31 Y, F55 WT, A73 G (protein, UniProt P02693 2-132, looked up, variant M18I G31Y L72A A73G, acrylodan label, acrylodan-labeled rI-FABP-L72A mutein: M18 I, G31 Y, F55 WT, A73 G) Fatty acid-binding protein, …: AFDGTWKVDRNENYEKFIEKMGINVVKRKLYAHDNLKLTITQEGNKFTVKESSNFRNIDVVFELGVDFAYSAGDGTELTGTWTMEGNKLVGKFKRVDNGKELIAVREISGNELIQTYTYEGVEAKRIFKKE | 1.8 | 2.7 | 2.6 | 1.6 | 1.9 | 2.6 | 0.9
2 | L2P11B4: acrylodan-labeled rI-FABP-L72A mutein: M18 V, G31 A, F55 WT, A73 W (protein, UniProt P02693 2-132, looked up, variant M18V G31A L72A A73W, acrylodan label, acrylodan-labeled rI-FABP-L72A mutein: M18 V, G31 A, F55 WT, A73 W) Fatty acid-binding protein, …: AFDGTWKVDRNENYEKFVEKMGINVVKRKLAAHDNLKLTITQEGNKFTVKESSNFRNIDVVFELGVDFAYSAWDGTELTGTWTMEGNKLVGKFKRVDNGKELIAVREISGNELIQTYTYEGVEAKRIFKKE | 1.8 | 2.8 | 2.6 | 1.9 | 2.2 | 3.1 | 0.7
3 | L2P4C5: acrylodan-labeled rI-FABP-L72A mutein: M18 I, G31 Y, F55 WT, A73 WT (protein, UniProt P02693 2-132, looked up, variant M18I G31Y L72A, acrylodan label) Fatty acid-binding protein, …: AFDGTWKVDRNENYEKFIEKMGINVVKRKLYAHDNLKLTITQEGNKFTVKESSNFRNIDVVFELGVDFAYSAADGTELTGTWTMEGNKLVGKFKRVDNGKELIAVREISGNELIQTYTYEGVEAKRIFKKE | 2.2 | 2.8 | 2.8 | 2.1 | 1.8 | 2.6 | 1.0
4 | L2P2E11: acrylodan-labeled rI-FABP-L72A mutein: M18 I, G31 F, F55 WT, A73 WT (protein, UniProt P02693 2-132, looked up, variant M18I G31F L72A, acrylodan label) Fatty acid-binding protein, …: AFDGTWKVDRNENYEKFIEKMGINVVKRKLFAHDNLKLTITQEGNKFTVKESSNFRNIDVVFELGVDFAYSAADGTELTGTWTMEGNKLVGKFKRVDNGKELIAVREISGNELIQTYTYEGVEAKRIFKKE | 1.9 | 2.8 | 2.5 | 1.6 | 2.0 | 2.6 | 0.8
